Reference: patent KR20110120890A

Target: Her-2 (human) (UniProt P04626)
Assay: antibody titration on FFPE SKBR-3 (positive) and MDA-MB-468 (negative) cells, non-proximal direct VeraTag release with 200 uM methylene blue, multi-parameter curve fit, single site

Ab8-Pro11 (monoclonal antibody Ab8 against the cytoplasmic domain of HER2, Lab Vision, conjugated to VeraTag reporter Pro11)
Kd: 8 µg/mL
